From patent US9388387B2, “Differentiation of human embryonic stem cells” (Janssen Biotech, Inc., priority 2008, dated 2016)

System: cells of the human embryonic stem cell line H1 differentiated to stage 6
Assay: Real-time PCR gene expression profile of stage 6 cultures +/- activin A, enriched using a 40 μm filter
Format: cell-based
Settings: 10 ng/ml activin A added at stage 6 for seven days, H1 cells passage 43, FIG. 4 panels a-f
Procedure: (1:30 dilution) coated dishes and exposed to RPMI medium supplemented with 2% BSA (Catalog#152401, MP Biomedical, Ohio), and 100 ng/ml activin A (R&D Systems, MN) plus 20 ng/ml WNT-3a (Catalog#1324-WN-002, R&D Systems, MN) plus 8 ng/ml of bFGF (Catalog#100-18B, PeproTech, NJ), for one day followed by treatment with RPMI media supplemented with 2% BSA and 100 ng/ml activin A plus 8 ng/ml of bFGF for an additional two days. Next the cultures were treated with DMEM/F12+2% BSA+50 ng/ml FGF7+0.25 μM Cyclopamine-KAAD (#239804, Calbiochem, CA) for two days, followed by four days incubation in DMEM/F12+1% B27 (Invitrogen, CA)+50 ng/ml FGF7+0.25 μM Cyclopamine-KAAD+2 μM Retinoic acid (RA) (Sigma, MO)+100 ng/ml of Noggin (R & D Systems, MN).
Cells were differentiated into pancreatic endocrine cells by incubating the cells in DMEM/F12+1% B27 (Invitrogen, CA)+100 ng/ml Noggin+1 μM DAPT (a gamma-secretase inhibitor) (Catalog#565784, Calbiochem, CA)+1 μM ALK5 inhibitor II (Catalog#616452, Calbiochem, Ca)+100 ng/ml of Netrin-4 (R&D Systems, MN) for three days followed by additional seven days incubation in DMEM/F12+1% B27 (Invitrogen, CA)+1 μM ALK5 inhibitor II (Calbiochem, Ca). […] At each stage cell number was calculated using a hemocytometer and RNA was collected for PCR analysis. […]

B1: activin A: a member of the TGF-β superfamily; TGF-β receptor agonist (R&D Systems, MN) (protein, UniProt P08476 311-426, looked up)
Inhibin beta A chain: GLECDGKVNICCKKQFFVSFKDIGWNDWIIAPSGYHANYCEGECPSHIAGTSGSSLSFHSTVINHYRMRGHSPFANLKSCCVPTKLRPMSMLYYDDGQNIIKKDIQNMIVEECGCS
In the case of B1, the “expression of pancreatic endocrine markers (pdx-1, nkx6-1, Pax4, nkx2.2, insulin, glucagon)” value is reported as “significantly boosted expression of all key pancreatic endocrine markers”.
